According to article PMC9654039, “FUS Microphase Separation: Regulation by Nucleic Acid Polymers and DNA Repair Proteins”:

Legend:
[1] = biological target: T1, FUS∆LCD (UniProt P35637 164-526); assay: fluorescence titration (Cy3-protein intensity); details: apparent Kd; concentration as rNMP (nucleotides), not molecules; Hill fit n 3.07; Buffer, salt, pH and temperature of the fluorescence titrations are not given in the material; concentrations are in nucleotide units. Poly(ADP-ribose) (Kd,app …)
T1 sequence (P35637 164-526): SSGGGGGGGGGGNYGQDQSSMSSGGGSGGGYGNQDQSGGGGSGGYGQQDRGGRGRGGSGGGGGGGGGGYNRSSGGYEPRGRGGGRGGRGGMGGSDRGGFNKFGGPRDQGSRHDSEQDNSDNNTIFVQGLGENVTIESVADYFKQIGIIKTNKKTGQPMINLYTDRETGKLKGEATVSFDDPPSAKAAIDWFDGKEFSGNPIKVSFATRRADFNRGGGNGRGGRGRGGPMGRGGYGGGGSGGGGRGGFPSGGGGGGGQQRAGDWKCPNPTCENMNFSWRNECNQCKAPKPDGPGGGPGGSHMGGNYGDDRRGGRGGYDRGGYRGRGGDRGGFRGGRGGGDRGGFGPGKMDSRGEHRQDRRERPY

[2] = biological target: T1, FUS∆LCD; assay: fluorescence titration (Cy3-protein intensity); apparent Kd; concentration as dNMP (nucleotides), not molecules; Hill fit n 1.12; Buffer, salt, pH and temperature of the fluorescence titrations are not given in the material; concentrations are in nucleotide units. Poly(ADP-ribose) (Kd,app); details: protein: recombinant; tags: Cy3 label (sulfo-cyanine 3 NHS ester); blunt; one-nucleotide gap between strands 1 and 2, opposite G of strand 3

Question: How did the Kd [1] turn out when RNA (~3000 nt luciferase mRNA) was run?
Answer: The Kd was 183 nM.

B1: dsDNA (30 bp, one-nucleotide gap) (dsDNA)
DNA 1: GGGTTGGTTTGCG
DNA 2: ATTCACAGTTCTCCGC
DNA 3: GCGGAGAACTGTGAATGCGCAAACCAACCC
modifications: 5'-phosphate on S4 (downstream strand); 3'-OH on S3
Question: B1 was tested. Which Kd [2] did it give?
Answer: The Kd was 2560 ± 159 nM.
